According to patent US20250195573A1:

Molecular target: MART-1(27-35) presented by HLA-A2 on A375 melanoma cells (human) (UniProt Q16655)
Assay: cell-based or functional assay

TNFa, IFNg, or IL-2 in supernatant by ELISA, T cells with peptide-pulsed A375 cells (× less antigen): 10
Substance: DMF5 β:CD3z:MyD88 (from UniProt P20963 52-164; Q99836 1-155) (TCR)
